Results taken from the supplement of paper PMC12042874.
± gives the uncertainty stated by the source.

test: amyloid nucleation score (Sup35N fusion, yeast selection) (log enrichment); library NNK1; higher = more nucleation; inactive = no reads after selection
Procedure, shortened: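 Peptides of 20 random codons, each fused to Sup35N, were expressed in psi-negative yeast. Cells were induced with 100 μM copper sulfate for 24 hours and grown 7 days at 30°C on medium lacking adenine and uracil, and plasmid inserts before and after selection were Illumina-sequenced. Nucleation scores are DiMSum log enrichments of output over input reads, centred on the mode score of non-aggregating sequences, and sequences under 100 input reads were excluded.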

For HLWSFAEMLNNHAVEDCVCT, the amyloid nucleation score was “inactive”.
For HRSYHYMLLHTLEDRCRKN, the amyloid nucleation score was “inactive”.
In the case of HSGYTYDRRYPCNYDFSIQV, the amyloid nucleation score is reported as “inactive”.
With HSKLFFLWHPWWL the amyloid nucleation score was “inactive”.
In the case of IAYLNKAKNLFLC, the amyloid nucleation score is reported as “inactive”.
For IDMIVGNLN, the amyloid nucleation score was “inactive”.
In the case of IGCSI, the amyloid nucleation score is reported as “inactive”.

Going from HMISVDITLVSLWRRIL to HMVFQVKFWTNHRQVFSLPY, the amyloid nucleation score rises from -0.402 ± 0.81 to 2.91 ± 0.14.

HMVHGMFY and HMWIEFSAVLFSYDMASSNV are within error of each other in amyloid nucleation score: -0.251 ± 0.7 for the first, -0.417 ± 0.52 for the second.

HMWSESQIVGRLYVYRNIVV and HNKVATMW are within error of each other in amyloid nucleation score: 0.747 ± 0.81 for the first, 1.46 ± 0.25 for the second.

HNLRVIFCY and HNMGWLFLLAVYLQMFT are within error of each other in amyloid nucleation score: 0.421 ± 0.58 for the first, -0.765 ± 1.1 for the second.

HNWCRSSRRVVMSFMCKTKL and HPFYIFAVYIFPYHCLSCSL are within error of each other in amyloid nucleation score: 0.412 ± 1.1 for the first, 0.331 ± 0.33 for the second.

HPYIWSVPDYKPFRAQAARV and HQLLTVL are within error of each other in amyloid nucleation score: -0.029 ± 1.6 for the first, -0.997 ± 0.28 for the second.

First: HRLKTYIMVSFIYRADAVGI
Second: HRLRLSVVRAIYDTQIHQRA
The amyloid nucleation score of the first is higher: 4.89 ± 0.068 for the first, -0.043 ± 0.34 for the second.

First: HRNWCCCCSCWSRLKMHLEL
Second: HRPYLCGISYGGSRCELYTA
The amyloid nucleation score of the first is lower: -1.32 ± 0.64 for the first, 0.839 ± 0.75 for the second.

HRSTVAKSTRKLPGICSVFW and HSCRMYYSQRIYIPSNDGSD are within error of each other in amyloid nucleation score: 0.845 ± 0.8 for the first, 1.68 ± 0.29 for the second.

HSDCRFRKLGRTHTSMRVCC and HSDFQDFMTDFGHDAFFKDW are the same in amyloid nucleation score: 0.096 ± 0.49 for the first, 0.096 ± 0.4 for the second.

Compared with HSFFMFP, HSVSRCLVNEGNGFSFCKDP is higher in amyloid nucleation score: -0.39 ± 0.73 for the first, 1.45 ± 0.39 for the second.

HSYCLLLWYG and HTGIIVKEVAQL are within error of each other in amyloid nucleation score: -1.74 ± 1.9 for the first, -0.507 ± 1.9 for the second.

HTNVWGGAHYTSIKAN and HVCSFLQAGAHWRRVAVCAG are within error of each other in amyloid nucleation score: 0.581 ± 0.31 for the first, 0.124 ± 0.73 for the second.

First: HVFCQRGCCERRLKIYISVS
Second: HVLADHYTMRGTNFVGYFHL
The amyloid nucleation score of the first is lower: -1.45 ± 0.57 for the first, 4.88 ± 0.069 for the second.

Compared with HVLHNWSDHDRN, HVLLYCANFVIYTDVA is higher in amyloid nucleation score: 1.23 ± 0.55 for the first, 2.45 ± 0.26 for the second.

Going from HVLTQRRRMSFTVTRYHKRI to HVMIFVIFPENYNICTFMKY, the amyloid nucleation score rises from 1.1 ± 0.52 to 2.29 ± 0.2.

HVNFNKGRMGGADSAVRCWW and HVNLLNRTLCK are within error of each other in amyloid nucleation score: -1.52 ± 1.8 for the first, 0.151 ± 0.9 for the second.

HVTMKMIASSTMLDQHSWAR and HVVVHDGSTQLWDARVRKWP are within error of each other in amyloid nucleation score: -0.065 ± 0.32 for the first, 0.558 ± 0.64 for the second.

HWCCIKSVGCIWIRKSVTRC and HWNHYWQ are within error of each other in amyloid nucleation score: 0.204 ± 0.43 for the first, -0.07 ± 0.46 for the second.

HWRTCCWQEMLLMSALSRQG and HWTYWIRI are within error of each other in amyloid nucleation score: -0.252 ± 0.46 for the first, -0.084 ± 1.6 for the second.

HYRYGGLAMFLVWIEMFLYW and HYSRDSLVVWYI are within error of each other in amyloid nucleation score: 0.407 ± 1.1 for the first, -0.228 ± 0.56 for the second.

HYVFRHAWDSSFDVNVGLAQ and IAIFKYVKRDSSGKNCLSRS are within error of each other in amyloid nucleation score: 0.564 ± 0.9 for the first, -0.242 ± 0.25 for the second.

Going from IAIFMYCM to IAILNLDNLGGYGCNCFHYF, the amyloid nucleation score falls from 7.467 ± 0.055 to 4.23 ± 0.13.

IALRL and IAMSSYPLD are within error of each other in amyloid nucleation score: 0.91 ± 0.4 for the first, 1.02 ± 1.1 for the second.

IARFHTDSYHYRY and IARYSTVYPVPHNCRNHKHS are within error of each other in amyloid nucleation score: -0.08 ± 1.1 for the first, 0.15 ± 1.1 for the second.

IASDRFF and IATNRGMCLGLRVSGLDMAR are within error of each other in amyloid nucleation score: 0.77 ± 0.97 for the first, 1.13 ± 0.49 for the second.

IAYGSINCGFNRL and ICACIMELCSLLHGIRGM are within error of each other in amyloid nucleation score: 1.18 ± 0.32 for the first, -0.378 ± 1.4 for the second.

Compared with ICFFGLDVNFTRLSTVTRFT, ICILLFGVRSDCM is lower in amyloid nucleation score: 2.66 ± 0.16 for the first, 1.44 ± 0.37 for the second.

ICSNGRARPGNMSV and ICVMSPGMESCGLVFGAWYT are within error of each other in amyloid nucleation score: -0.047 ± 1.7 for the first, 0.61 ± 0.56 for the second.

Compared with ICWNHTTVGFGMIMVVYYL, IDMTQGMRLQWMFNRALLCW is lower in amyloid nucleation score: 1.95 ± 0.091 for the first, 0.813 ± 0.72 for the second.

Compared with IDVFLNALSVWNVIVDLIIV, IEDAALRSKEPGFVQHNYSS is higher in amyloid nucleation score: -0.225 ± 0.42 for the first, 4.17 ± 0.077 for the second.

First: IEDFEKGISVRVVTLWSWVV
Second: IETVLIVAY
The amyloid nucleation score of the first is lower: -0.93 ± 0.39 for the first, 0.355 ± 0.53 for the second.

First: IFAPAIMSFYSLVIQWPYPG
Second: IFAVHMLYSECTGSFRYHWS
The amyloid nucleation score of the first is higher: 1.99 ± 0.45 for the first, 0.055 ± 0.79 for the second.

First: IFCSNECVSTVDADTPGLSL
Second: IFGKTFTGYMVRFGVVHDLA
The amyloid nucleation score of the first is higher: 9.289 ± 0.044 for the first, 0.358 ± 0.41 for the second.

First: IFGYMSGS
Second: IFISIVLLF
The amyloid nucleation score of the first is lower: 0.543 ± 0.63 for the first, 4.8 ± 0.079 for the second.

IFKDLCLTTSGLDIDPNFND and IFKGGFTWYCCDKARGLKGR are within error of each other in amyloid nucleation score: 0.762 ± 0.51 for the first, 0.411 ± 0.34 for the second.

Compared with IFNML, IFSENRDVGNVFSVGQIVIF is higher in amyloid nucleation score: -0.083 ± 0.93 for the first, 3.72 ± 0.079 for the second.

IFSGECHVYVGSRQGWALVI and IFSPVSCDMVTDGMGTSCWY are within error of each other in amyloid nucleation score: -0.22 ± 0.98 for the first, 0.144 ± 0.9 for the second.

IFTVSRGPVTLCWDWWETHA and IGCQLNIRVCLKVILLYVEA are within error of each other in amyloid nucleation score: 0.196 ± 0.56 for the first, 0.259 ± 0.95 for the second.

IGIGWATSLCLDRDLFVTSG and IGILMVACRLHNVSLYLCSG are within error of each other in amyloid nucleation score: 0.029 ± 1.2 for the first, -0.514 ± 0.96 for the second.
